{"source": "paper doi:10.1101/2021.05.09.442808", "about": "(bioRxiv, 2021)", "binders": {"B1": {"name": "S2P6 Fab fragment (Fab, V domains shown)", "VH": "EVQLVQSGAEVKKPGASVKVSCKASGYTFTSQYMHWVRQAPGQGLEWIGIINPSGVHTSYAQKFQGRVTLTRDTSTSTLYMELSSLRSEDTAVYYCARGSPKGAFDYWGQGTLVTVSS", "VL": "not shown"}}, "molecular_target": "SARS-CoV-2 S 2P prefusion-stabilized ectodomain trimer (SARS-CoV-2 (Wuhan-Hu-1), stabilised)", "assay": "SPR"}
{"binder": "B1", "values": [{"measurement": "Kd", "value": 7, "unit": "nM"}]}
